In article PMC3553496:

What was measured:
Experiment in all cases: peptide or protein array
[1] = molecular target: Drebrin peptide (18-mer) (human)
[2] = molecular target: FH1/FH2 domain–containing protein 3 peptide (18-mer) (human)
[3] = molecular target: LIM domain only protein 7 peptide (18-mer) (human)
[4] = molecular target: LIM homology domain– and calponin homology domain–containing protein 1 peptide (18-mer) (human)
[5] = molecular target: Leucine-rich repeat flightless-interacting protein 2 peptide (18-mer) (human)
[6] = molecular target: Myosin-14 peptide (18-mer) (human)

relative binding strength (% of the strongest interaction of this SH3 domain) [1]: 68% | relative binding strength (% of the strongest interaction of this SH3 domain) [2]: 53% | relative binding strength (% of the strongest interaction of this SH3 domain) [3]: 12% | relative binding strength (% of the strongest interaction of this SH3 domain) [4]: 11% | relative binding strength (% of the strongest interaction of this SH3 domain) [5]: 65% | relative binding strength (% of the strongest interaction of this SH3 domain) [6]: 100%
Substance: GST-tagged ARHGAP10L SH3 domain (domain or fragment)
